From patent US20130303439A1, “CHIMERIC PEPTIDES INCLUDING A PENETRATING PEPTIDE AND A BINDING DOMAIN OF PP2A CATALYTIC SUBUNIT TO CASPASE-9” (Institut National de la Sante et de la Recherche Medicale …, priority 2010, published 2013) come the findings set out here.

Residues, ends and D or L forms follow the SMILES beside them. No end group written: not given here.

For data set [1], the target named is T1, human caspase-9 (Homo sapiens, UniProt P55211).
T1 sequence (P55211 1-416): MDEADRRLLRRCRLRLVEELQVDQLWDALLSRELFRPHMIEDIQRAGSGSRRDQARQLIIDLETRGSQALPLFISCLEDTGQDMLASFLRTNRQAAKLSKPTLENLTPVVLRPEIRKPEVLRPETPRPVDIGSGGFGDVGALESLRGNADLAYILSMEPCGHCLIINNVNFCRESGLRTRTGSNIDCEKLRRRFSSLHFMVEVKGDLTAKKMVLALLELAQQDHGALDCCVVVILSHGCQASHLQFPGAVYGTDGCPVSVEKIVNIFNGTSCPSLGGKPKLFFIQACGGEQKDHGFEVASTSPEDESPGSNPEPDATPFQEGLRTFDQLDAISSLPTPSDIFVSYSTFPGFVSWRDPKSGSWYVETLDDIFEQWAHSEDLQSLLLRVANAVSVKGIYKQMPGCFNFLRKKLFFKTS
Briefly: Caspase-9-binding assay on cellulose-bound peptides containing human PP2Ac sequences. The following applies: dodecapeptides bound onto cellulose membrane. As for the experimental part: Overlapping dodecapeptides covering the whole human PP2Ac sequence were prepared by atomated spot synthesis (Abimed, Langerfield, Germany) onto an amino-derived cellulose membrane, as described (Frank and Overwin, 1996 Meth. Mol. Biol. 66, 149-169; Gausepohl et al., 1992 Pept Res, 5, 315-320). The membrane was saturated using 3% BSA and 3% non-fat dry milk, incubated with purified human caspase-9 and after several washing steps, incubates with anti-caspase-9 antibody, followed by PO-conjugated secondary antibody. Positive spots were visualized using the ECL system.
To identify peptides containing PP2Ac sequences able to binding to caspase-9, a series of 150 overlapping dodecapeptides (shift of 2 amino acids) from human PP2Ac (sequence deduced from NCBI, accession number NP_00270601) were bound onto a cellulose membrane and incubated with purified caspase-9.

Data set [2] is described as follows: Cell penetration / internalization of peptides. It is filed as cell-based.
The test system of data set [3] is TS1αβ cells. The data set is described as follows: Cell death assay (annexin V / PI flow cytometry). The following applies: peptides at 150 μM. It is filed as cell-based, murine. As for the experimental part:
An Annexin-V-FITC conjugated kit (Roche) was used for the assessment of outer leaflet exposure of phosphatidylserine (PS) in the plasma membrane of apoptotic cells. Staining was performed according to the manufacturer's instructions. A total of […] cells were analyzed by flow cytometry in a FACSCalibur cytofluometer (BD Biosciences). Necrotic cells were excluded by propidium iodide (PI) staining, and single annexin V positive cells were considered apoptotic. For apoptotic analysis the different peptides were used at 150 μM.
Using flow cytometry detection of annexin V and PI, the inventors analyzed the capacity of DPT-C9 to induce apoptosis in TS1αβ cells cultured in presence of IL-2. In contrast to non penetrating C9 peptide, DPT-C9 induced a 6-fold increase of apoptosis.

Data set [4] has as its target T2, PP2Ac (Mus musculus, UniProt P63330).
T2 construct: endogenous in cells; host or cells: TS1αβ murine T cell line, IL-2-stimulated, NP-40 lysate
The data set is described as follows: Pull down assay of biotinylated peptides with cell lysate, Western blot with PP2Ac antibody. It is filed as binding, murine. The following applies: cellular extracts from IL-2-stimulated cells. The method, then: Biotinylated peptides were preincubated 2 h at 0-100 μM (in final concentration with lysate) at room temperature with 30 μl of streptavidin-coated immunomagnetic beads (Calbiochem, San Diego Calif.). During this time, […] exponentially growing TS1αβ cells were first washed twice with PBS and then lysed 10 minutes on ice in 400 μl of lysis buffer (50 mM Tris pH7.4, 150 mM NaCl, 20% glycerol, 1% NP-40, 10 mM EDTA, 1 mM PhenylMethylSulfonyl Fluoride, 10 mM NaF, 1 mM orthovanadate, “complete, EDTA-free” protease inhibitor cocktail from Roche).
Lysates were clarified at 13000 g for 10 minutes at 4° C. and were incubated with biotinylated peptides associated with the streptavidin-coated immunomagnetic beads 2 h at 4° C. Biotinylated peptides were pulled down with streptavidin beads and washed two times in 700 μl of lysis buffer on ice. Bound proteins and unbound lysates were then analyzed by SDS-PAGE and Western Blotting using PP1c or PP2Ac antibodies.
To determine the capacity of DPT-C9 to interact with PP2Ac, the inventors performed pull-down experiments using cellular extracts from IL-2-stimulated cells incubated with biotinylated peptides or beads alone.

Data set [5] has as its target T3, caspase-9 from lysate of murine TS1αβ cells (mouse, UniProt Q8C3Q9 1-454, limits assumed).
T3 construct: Endogenous protein in the lysate; also called murine caspase-9; mouse caspase-9
T3 sequence (looked up): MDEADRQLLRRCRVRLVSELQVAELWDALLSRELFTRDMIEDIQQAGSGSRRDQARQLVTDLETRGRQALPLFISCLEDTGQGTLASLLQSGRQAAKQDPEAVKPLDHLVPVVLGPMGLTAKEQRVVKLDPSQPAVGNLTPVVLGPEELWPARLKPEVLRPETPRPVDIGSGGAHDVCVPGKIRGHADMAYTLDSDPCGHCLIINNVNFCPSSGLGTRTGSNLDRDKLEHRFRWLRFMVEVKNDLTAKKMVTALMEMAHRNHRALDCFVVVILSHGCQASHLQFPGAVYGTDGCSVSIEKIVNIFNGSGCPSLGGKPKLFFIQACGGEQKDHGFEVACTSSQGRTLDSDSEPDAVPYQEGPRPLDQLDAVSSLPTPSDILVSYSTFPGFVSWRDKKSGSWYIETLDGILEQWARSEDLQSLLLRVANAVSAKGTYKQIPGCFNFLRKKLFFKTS
Briefly: pull-down from IL-2-stimulated TS1αβ cell lysate with biotinylated peptide on streptavidin beads, Western blot.

The target in data set [6] is T4, PP2Ac (catalytic subunit of PP2A) from lysate of IL-2-stimulated murine TS1αβ cells (mouse, UniProt P63330 1-309).
T4 construct: Endogenous protein from cell lysate, detected by Western blot with a PP2Ac antibody; It may have been part of a PP2A holoenzyme in the lysate
Described as above.

T2 sequence (P63330 whole entry): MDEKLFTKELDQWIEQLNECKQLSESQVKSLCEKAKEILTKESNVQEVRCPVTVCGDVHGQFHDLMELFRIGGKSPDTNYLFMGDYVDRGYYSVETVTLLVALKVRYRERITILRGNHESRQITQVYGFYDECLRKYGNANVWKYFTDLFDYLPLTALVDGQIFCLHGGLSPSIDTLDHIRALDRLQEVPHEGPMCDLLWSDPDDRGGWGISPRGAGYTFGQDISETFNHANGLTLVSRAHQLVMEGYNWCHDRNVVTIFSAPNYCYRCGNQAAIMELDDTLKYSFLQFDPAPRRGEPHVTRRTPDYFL
T4 sequence (P63330 whole entry): as above

“LDHIRALDRLQE (Synthetic PP2A peptide) [dodecapeptide from human PP2Ac]”: the “binding to purified caspase-9” value in data set [1] is given as “bind to purified caspase-9”.

On to `CC[C@H](C)[C@H](NC(=O)CNC(=O)[C@H](CC(=O)O)NC(=O)[C@H](CC(C)C)NC(=O)[C@@H](NC(=O)[C@H](CCC(=O)O)NC(=O)[C@@H](NC(=O)[C@@H](N)Cc1ccc(O)cc1)[C@@H](C)CC)[C@@H](C)O)C(=O)N[C@@H](CC(C)C)C(=O)N[C@@H](CCC(=O)O)C(=O)N[C@@H](CCC(N)=O)C(=O)N[C@@H](Cc1c[nH]c2ccccc12)C(=O)N[C@@H](C)C(=O)N[C@@H](CCCNC(=N)N)C(=O)N[C@@H](CO)C(=O)N[C@@H](CCC(=O)O)C(=O)N[C@@H](CC(=O)O)C(=O)N[C@@H](CC(C)C)C(=O)O` [C9, YIETLDGILEQWARSEDL] (H-YIETLDGILEQWARSEDL-OH; N-terminus and C-terminus assumed), for which, in data set [2], the Cell penetration result is given as “No” and the internalized entry is recorded as “is not internalized”.

As to “LDRLQEVPHEGP (Synthetic PP2A peptide) [dodecapeptide from human PP2Ac]”, the “binding to purified caspase-9” value in data set [1] was “bind to purified caspase-9”.

In the case of “HIRALDRLQEVP (Synthetic PP2A peptide) [dodecapeptide from human PP2Ac]”, in data set [1], the “binding to purified caspase-9” value is “bind to purified caspase-9”.

For the molecule `CC[C@H](C)[C@H](NC(=O)CNC(=O)[C@H](CC(=O)O)NC(=O)[C@H](CC(C)C)NC(=O)[C@@H](NC(=O)[C@H](CCC(=O)O)NC(=O)[C@@H](NC(=O)[C@H](Cc1ccc(O)cc1)NC(=O)[C@@H](NC(=O)[C@H](CCCCN)NC(=O)[C@@H](NC(=O)[C@H](CCC(=O)O)NC(=O)[C@H](CCCNC(=N)N)NC(=O)[C@H](CCCCN)NC(=O)[C@@H](NC(=O)[C@H](CCCCN)NC(=O)[C@H](CCCCN)NC(=O)[C@H](CCCCN)NC(=O)[C@H](CCCCN)NC(=O)[C@@H](N)C(C)C)[C@@H](C)CC)[C@@H](C)CC)[C@@H](C)CC)[C@@H](C)CC)[C@@H](C)O)C(=O)N[C@@H](CC(C)C)C(=O)N[C@@H](CCC(=O)O)C(=O)N[C@@H](CCC(N)=O)C(=O)N[C@@H](Cc1c[nH]c2ccccc12)C(=O)N[C@@H](C)C(=O)N[C@@H](CCCNC(=N)N)C(=O)N[C@@H](CO)C(=O)N[C@@H](CCC(=O)O)C(=O)N[C@@H](CC(=O)O)C(=O)N[C@@H](CC(C)C)C(=O)O` [DPT-C9, VKKKKIKREIKI-YIETLDGILEQWARSEDL] (H-VKKKKIKREIKIYIETLDGILEQWARSEDL-OH; N-terminus and C-terminus assumed), in data set [2], the Cell penetration entry is recorded as “Yes” and the internalized entry is reported as “are internalized”.

In the case of `CC[C@H](C)[C@H](NC(=O)[C@H](CC(C)C)NC(=O)[C@H](CCC(=O)O)NC(=O)[C@H](CCC(N)=O)NC(=O)[C@H](Cc1c[nH]c2ccccc12)NC(=O)[C@H](C)NC(=O)[C@H](CCCNC(=N)N)NC(=O)[C@H](CO)NC(=O)[C@H](CCC(=O)O)NC(=O)[C@H](CC(=O)O)NC(=O)[C@H](CC(C)C)NC(=O)[C@@H](NC(=O)[C@H](CCCCN)NC(=O)[C@@H](NC(=O)[C@H](CCC(=O)O)NC(=O)[C@H](CCCNC(=N)N)NC(=O)[C@H](CCCCN)NC(=O)[C@@H](NC(=O)[C@H](CCCCN)NC(=O)[C@H](CCCCN)NC(=O)[C@H](CCCCN)NC(=O)[C@H](CCCCN)NC(=O)[C@@H](N)C(C)C)[C@@H](C)CC)[C@@H](C)CC)[C@@H](C)CC)C(=O)NCC(=O)N[C@@H](CC(=O)O)C(=O)N[C@@H](CC(C)C)C(=O)N[C@H](C(=O)N[C@@H](CCC(=O)O)C(=O)N[C@H](C(=O)N[C@@H](Cc1ccc(O)cc1)C(=O)O)[C@@H](C)CC)[C@@H](C)O` [DPT-C9r, VKKKKIKREIKI-LDESRAWQELIGDLTEIY] (H-VKKKKIKREIKILDESRAWQELIGDLTEIY-OH; N-terminus and C-terminus assumed), in data set [2], the Cell penetration entry is recorded as “Yes” and the internalized result is given as “are internalized”.

As for “RALDRLQEVPHE (Synthetic PP2A peptide) [dodecapeptide from human PP2Ac]”, in data set [1], the “binding to purified caspase-9” value is reported as “bind to purified caspase-9”.

As to `N=C(N)NCCC[C@H](NC(=O)[C@H](CCCNC(=N)N)NC(=O)[C@H](CCCNC(=N)N)NC(=O)[C@H](CCC(N)=O)NC(=O)[C@H](CCCNC(=N)N)NC(=O)[C@H](CCCNC(=N)N)NC(=O)[C@H](CCCCN)NC(=O)[C@H](CCCCN)NC(=O)[C@H](CCCNC(=N)N)NC(=O)CNC(=O)[C@@H](N)Cc1ccc(O)cc1)C(=O)O` [Tat, YGRKKRRQRRR], the internalized entry in data set [2] was “are internalized”.

As to “DTLDHIRALDRL (Synthetic PP2A peptide) [dodecapeptide from human PP2Ac]”, the “binding to purified caspase-9” value in data set [1] is “bind to purified caspase-9”.

With VKKKKIKREIKI [DPT-sh1], the “induction of apoptosis / cell death (in words)” value in data set [3] was “behaves as negative control”. The “interact with PP2Ac” value in data set [4] was “do not interact with PP2Ac”. Moreover, in data set [2], the Cell penetration entry is “Yes” and the internalized entry is “are internalized”.

As for VKKKKIKREIKIYIETLDGILEQWARSEDL (also: biotinylated, position not given here, Used biotinylated in the pull-down) [DPT-C9 (fusion of DPT-sh1 shuttle and C9 sequence)], in data set [5], the binding result is recorded as “no binding (tested: 0-100 µM peptide)”.

B1: DPT-C9r (fusion of DPT-sh1 and C9 reverse sequence) (peptide)
peptide: VKKKKIKREIKILDESRAWQELIGDLTEIY
modifications: also: biotinylated, position not given here
notes: Negative control peptide; Used biotinylated in the pull-down
For the molecule B1, in data set [6], the binding result is “no binding (tested: 0-100 µM peptide)”.

B2: C9 peptide (mouse caspase-9 aa 401-418, PP2Ac binding domain) (peptide)
peptide: YIETLDGILEQWARSEDL
modifications: also: biotinylated, position not given here
notes: Synthetic, non cell-penetrating peptide; Used biotinylated on streptavidin beads in the pull-down; also called C9m
Turning to B2, the binding result in data set [5] is recorded as “no binding (tested: 0-100 µM peptide)”.
